Experiment [1] addresses Arkadia (RING finger protein 111, RNF111), wild type, expressed in S. cerevisiae (human) (UniProt Q6ZNA4).
The target in a further experiment is FLAG-SUMO2-GFP-COMP-HA. The experiment can be described thus: native gel or EMSA; native PAGE of the GFP-COMP substrates expressed in S. cerevisiae. Background: In EMSA bound probe runs differently from free probe, usually more slowly.
A further experiment deals with SUMO1-GFP-COMP-HA. Described as above.
In experiment [2] the target is SUMO-binding domain of Arkadia (residues 285–416) with mutations in the SOB motif (SOB*) (murine) (UniProt Q99ML9). The experiment can be described thus: ITC.

From PMC6695498 come the findings set out here.

SUMO-binding domain of Arkadia (residues 285–416) with mutations in the SOB motif (SOB*) (murine), sequence (Q99ML9 285-416, change not shown): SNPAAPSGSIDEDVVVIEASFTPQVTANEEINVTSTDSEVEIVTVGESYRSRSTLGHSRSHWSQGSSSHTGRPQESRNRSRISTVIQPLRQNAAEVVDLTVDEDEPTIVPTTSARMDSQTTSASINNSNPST
Arkadia (RING finger protein 111, RNF111), wild type, expressed in S. cerevisiae (human), sequence (Q6ZNA4 whole entry): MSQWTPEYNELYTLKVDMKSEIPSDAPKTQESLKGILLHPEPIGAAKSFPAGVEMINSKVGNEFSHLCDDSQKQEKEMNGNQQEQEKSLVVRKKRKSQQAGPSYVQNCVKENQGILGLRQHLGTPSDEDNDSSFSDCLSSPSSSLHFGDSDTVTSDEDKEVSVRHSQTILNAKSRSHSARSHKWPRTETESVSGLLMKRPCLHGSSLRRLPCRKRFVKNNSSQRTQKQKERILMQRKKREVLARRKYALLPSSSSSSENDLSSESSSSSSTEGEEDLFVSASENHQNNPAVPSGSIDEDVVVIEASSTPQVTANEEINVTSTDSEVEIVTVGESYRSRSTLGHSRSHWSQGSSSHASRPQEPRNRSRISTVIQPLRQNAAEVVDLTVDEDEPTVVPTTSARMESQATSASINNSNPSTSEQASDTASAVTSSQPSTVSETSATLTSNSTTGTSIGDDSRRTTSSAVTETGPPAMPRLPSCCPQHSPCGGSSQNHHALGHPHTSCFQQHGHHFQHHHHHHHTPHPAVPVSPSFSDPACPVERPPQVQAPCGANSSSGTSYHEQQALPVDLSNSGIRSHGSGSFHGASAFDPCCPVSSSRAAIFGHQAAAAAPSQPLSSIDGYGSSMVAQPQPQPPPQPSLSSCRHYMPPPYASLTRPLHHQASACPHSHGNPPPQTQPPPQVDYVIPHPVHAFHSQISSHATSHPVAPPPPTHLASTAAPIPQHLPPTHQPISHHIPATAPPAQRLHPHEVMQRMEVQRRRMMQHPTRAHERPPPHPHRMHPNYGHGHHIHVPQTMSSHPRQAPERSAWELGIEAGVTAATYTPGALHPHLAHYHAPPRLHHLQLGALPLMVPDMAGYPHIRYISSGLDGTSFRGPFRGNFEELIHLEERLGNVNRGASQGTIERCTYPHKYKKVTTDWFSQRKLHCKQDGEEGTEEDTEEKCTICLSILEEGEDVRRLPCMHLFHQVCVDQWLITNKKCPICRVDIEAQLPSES

In turn, “FLAG-4xSUMO2-GFP-HA (from UniProt P61956 12-95; P61956 12-95; P61956 12-95)” came in with a steady-state level of the reporter in S. cerevisiae co-expressing Arkadia, against the vector control (quantitative anti-HA Western blot) in experiment [1] of 60%.

Take FLAG-SUMO1-3xSUMO2-GFP-HA: the steady-state level of the reporter in S. cerevisiae co-expressing Arkadia, against the vector control (quantitative anti-HA Western blot) in experiment [1] amounted to 25%.

Turning to FLAG-SUMO2-GFP-COMP-HA, the stoichiometry N (usually the number of molecules, sites or subunits per partner or assembly) with FLAG-SUMO2-GFP-COMP-HA is 5.

SUMO1-GFP-COMP-HA: the stoichiometry N with SUMO1-GFP-COMP-HA was found to be 5.

“linear SUMO1-capped SUMO2 trimer (SUMO1-ΔN15 followed by two SUMO2-ΔN11) (from UniProt P63165 16-101; P61956 12-95; P61956 12-95)”: in experiment [2], the Kd – broadly, the concentration at which binding is half-saturated – was found to be 12.4 µM.

Turning to “linear SUMO2 trimer (tri-SUMO2-ΔN11) (from UniProt P61956 12-95; P61956 12-95; P61956 12-95)”, the Kd in experiment [2] worked out at 11.1 µM.
